PMC6904361, “Vitamin D Receptor Inhibits NLRP3 Activation by Impeding Its BRCC3-Mediated Deubiquitination” (Frontiers in Immunology, 2019)

Biological target: T1, His-NLRP3 (human, UniProt Q96P20 1-1036)
T1 construct: human NLRP3 cloned into pET28a; The methods name only His-NLRP3; also called His-NLRP3-Flag; pET28a-His-NLRP3; source: E. coli (pET28a), IPTG-induced; called purified in the legend
Experiment: pull-down; GST or GST-VDR with His-NLRP3, pulled down on Glutathione MagBeads, immunoblot; incubation 2 h or overnight at 4 °C on a rotator (methods)
Conditions: both partners purified

T1 sequence (Q96P20 whole entry): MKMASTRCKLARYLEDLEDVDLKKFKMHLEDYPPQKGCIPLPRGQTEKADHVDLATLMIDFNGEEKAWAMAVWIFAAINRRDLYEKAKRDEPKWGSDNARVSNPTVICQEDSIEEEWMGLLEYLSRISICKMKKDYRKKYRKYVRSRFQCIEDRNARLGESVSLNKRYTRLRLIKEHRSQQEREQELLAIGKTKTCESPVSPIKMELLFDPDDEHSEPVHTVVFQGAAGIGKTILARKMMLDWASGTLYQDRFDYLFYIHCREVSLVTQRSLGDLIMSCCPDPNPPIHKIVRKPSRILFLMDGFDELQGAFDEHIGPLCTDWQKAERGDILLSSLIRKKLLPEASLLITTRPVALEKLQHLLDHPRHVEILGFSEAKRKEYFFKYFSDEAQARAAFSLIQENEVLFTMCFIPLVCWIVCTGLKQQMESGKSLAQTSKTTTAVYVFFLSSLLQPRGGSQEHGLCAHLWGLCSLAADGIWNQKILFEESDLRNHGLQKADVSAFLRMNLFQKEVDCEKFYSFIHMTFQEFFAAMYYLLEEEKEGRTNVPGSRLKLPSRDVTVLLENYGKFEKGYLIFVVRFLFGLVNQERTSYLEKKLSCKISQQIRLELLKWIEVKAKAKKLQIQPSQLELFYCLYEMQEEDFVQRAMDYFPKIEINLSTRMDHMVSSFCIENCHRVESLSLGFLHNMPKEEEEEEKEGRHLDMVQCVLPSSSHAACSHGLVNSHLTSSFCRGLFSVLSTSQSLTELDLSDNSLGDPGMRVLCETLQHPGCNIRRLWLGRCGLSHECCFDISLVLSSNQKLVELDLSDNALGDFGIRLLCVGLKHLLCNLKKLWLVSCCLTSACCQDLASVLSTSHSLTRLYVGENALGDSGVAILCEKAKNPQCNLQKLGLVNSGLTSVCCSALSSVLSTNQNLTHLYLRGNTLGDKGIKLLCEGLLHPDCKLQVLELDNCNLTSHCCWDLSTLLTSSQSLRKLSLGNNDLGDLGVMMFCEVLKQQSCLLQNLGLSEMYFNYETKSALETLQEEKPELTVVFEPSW

binding result: binds
B1: GST-human VDR (natural protein, UniProt P11473 1-427, looked up)
chain: MEAMAASTSLPDPGDFDRNVPRICGVCGDRATGFHFNAMTCEGCKGFFRRSMKRKALFTCPFNGDCRITKDNRRHCQACRLKRCVDIGMMKEFILTDEEVQRKREMILKRKEEEALKDSLRPKLSEEQQRIIAILLDAHHKTYDPTYSDFCQFRPPVRVNDGGGSHPSRPNSRHTPSFSGDSSSSCSDHCITSSDMMDSSSFSNLDLSEEDSDDPSVTLELSQLSMLPHLADLVSYSIQKVIGFAKMIPGFRDLTSEDQIVLLKSSAIEVIMLRSNESFTMDDMSWTCGNQDYKYRVSDVTKAGHSLELIEPLIKFQVGLKKLNLHEEEHVLLMAICIVSPDRPGVQDAALIEAIQDRLSNTLQTYIRCRHPPPGSHLLYAKMIQKLADLRSLNEEHSKQYRCLSFQPECSMKLTPLVLEVFGNEIS
notes: human vitamin D receptor in pGEX-6P1; also called GST-VDR; pGEX6p-1-GST-VDR; source: E. coli BL21(DE3), IPTG-induced; called purified in the legend
